According to paper PMC9076861:

Target: human insulin receptor overexpressed on Rat-1 cells (Rat-1/hIR) (human) (UniProt P06213)

Work on insulin from bovine pancreas (ligand) yielded an EC50 of IR Y1150 phosphorylation in Rat-1/hIR cells, various concentrations of insulin for 5 min, western blot, four-parameter logistic fit of 0.0864 µM.
